{"source": "paper PMC11019746", "about": "(ACS Pharmacology & Translational Science, 2024); as to miniGsi recruitment Emax ± SEM: relative to 1 µM hPP (100%)", "molecules": {"B1": {"name": "cyclic peptide 11 (alkyne-functionalized precursor peptide) (peptide)", "peptide": "RYRLRY", "modifications": "N^α-succinyl; N^ω-[hex-5-ynylaminocarbonyl]-Arg at position 1; N^ω-[(aminobutyl)aminocarbonyl]-Arg at position 3; cyclized via the succinyl carboxylic group and the primary amino group of the carbamoylated arginine in position 3; C-terminal amide", "notes": "printed in three-letter code for the linear precursor 10: N^α-succinyl-N^ω[hex-5-ynylaminocarbonyl]-Arg-Tyr-N^ω-[(aminobutyl)aminocarbonyl]Arg-Leu-Arg-Tyr-amide; 11 is its cyclized form; source: synthetic peptide (SPPS of linear peptide 10, cyclization in solution, preparative HPLC)"}}, "key": {"[1]": {"target": "T1, hY5R (Homo sapiens, UniProt Q15761)", "T1 construct": "expressed in transfected cells; host or cells: HEC-1B (human endometrial cancer)", "T1 sequence (Q15761 1-445)": "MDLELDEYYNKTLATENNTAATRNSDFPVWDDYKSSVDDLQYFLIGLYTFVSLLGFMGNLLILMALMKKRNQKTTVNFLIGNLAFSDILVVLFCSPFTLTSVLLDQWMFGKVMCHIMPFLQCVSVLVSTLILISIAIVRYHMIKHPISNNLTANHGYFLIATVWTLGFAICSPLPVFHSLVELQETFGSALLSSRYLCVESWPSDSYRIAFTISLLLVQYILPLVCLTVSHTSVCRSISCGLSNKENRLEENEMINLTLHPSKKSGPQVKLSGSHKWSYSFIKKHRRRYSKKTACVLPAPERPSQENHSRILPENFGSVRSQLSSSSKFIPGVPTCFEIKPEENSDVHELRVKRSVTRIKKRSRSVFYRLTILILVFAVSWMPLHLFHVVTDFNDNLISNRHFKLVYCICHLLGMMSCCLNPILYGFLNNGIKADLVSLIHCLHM", "test": "Y5R radioligand competition binding, whole HEC-1B-hY5R cells, [3H]propionyl-pNPY", "conditions": "[3H]propionyl-pNPY c = 5 nM, read-out: pKi ± SEM hY5R (converted)", "description": "(§1) All radioligand binding assays were performed at intact Y receptor expressing cells at 23 ± 2 °C.\n(§2) (logarithmic form in the case of pKi values)."}, "[2]": {"target": "Y4R (Homo sapiens, UniProt P50391)", "test": "Y4R miniGsi recruitment assay (HEK293T-NlucN-mGsi/Y4R-NlucC cells)", "format": "cell-based", "set-up": "expressed in transfected cells; host or cells: HEK293T", "conditions": "read-out: miniGsi recruitment Emax ± SEM", "description": "Furimazine was used as nanoluciferase substrate. The original stock was diluted 1:1000 in L15-HEPES to obtain the feed solution for the assay. Data analysis was performed based on the areas under the curves (time window: 45 min starting with the agonist addition) using GraphPad Prism 5. […] Efficacies Emax correspond to the upper plateaus of the normalized concentration–response curves."}, "[3]": {"target": "T2, hY2R (Homo sapiens, UniProt P49146)", "T2 construct": "host or cells: CHO", "T2 sequence (P49146 1-381)": "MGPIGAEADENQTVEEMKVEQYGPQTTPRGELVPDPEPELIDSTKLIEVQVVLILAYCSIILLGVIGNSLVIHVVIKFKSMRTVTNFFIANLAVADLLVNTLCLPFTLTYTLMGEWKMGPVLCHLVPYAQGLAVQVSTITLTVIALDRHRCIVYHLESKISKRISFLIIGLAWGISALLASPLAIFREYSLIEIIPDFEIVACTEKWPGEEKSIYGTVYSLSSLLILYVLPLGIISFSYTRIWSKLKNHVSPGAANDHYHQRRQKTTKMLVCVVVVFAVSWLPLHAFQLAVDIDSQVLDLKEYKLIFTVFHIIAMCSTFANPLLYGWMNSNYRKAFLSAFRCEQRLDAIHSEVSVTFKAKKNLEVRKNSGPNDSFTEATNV", "test": "Y2R radioligand competition binding, whole CHO-hY2R cells, [3H]propionyl-pNPY", "conditions": "read-out: pKi ± SEM hY2R (converted)", "description": "as §1"}, "[4]": {"target": "T3, hY1R (Homo sapiens, UniProt P25929)", "T3 construct": "host or cells: SK-N-MC neuroblastoma cells", "T3 sequence (P25929 1-384)": "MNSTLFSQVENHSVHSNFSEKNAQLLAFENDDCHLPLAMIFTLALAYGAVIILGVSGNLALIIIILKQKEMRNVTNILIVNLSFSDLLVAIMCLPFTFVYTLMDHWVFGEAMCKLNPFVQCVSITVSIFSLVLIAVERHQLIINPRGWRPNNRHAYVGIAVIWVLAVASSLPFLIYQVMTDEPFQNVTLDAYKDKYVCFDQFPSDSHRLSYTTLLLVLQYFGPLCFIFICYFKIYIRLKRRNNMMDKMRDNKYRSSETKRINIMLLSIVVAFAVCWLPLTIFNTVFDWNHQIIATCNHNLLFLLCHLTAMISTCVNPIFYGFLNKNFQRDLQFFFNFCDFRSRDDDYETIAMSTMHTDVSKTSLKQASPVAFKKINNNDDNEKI", "test": "Y1R radioligand competition binding, whole SK-N-MC cells, [3H]UR-MK299", "conditions": "SK-N-MC neuroblastoma cells, [3H]UR-MK299 c = […]; read-out: pKi ± SEM hY1R (converted)", "description": "as §1\nCompetition binding assays at Y1R-expressing SK-N-MC neuroblastoma cells were performed as previously described using [^3H]UR-MK299 as radioligand (concentration: 0.15 nM).[33] […] (logarithmic form in the case of pKi values)."}, "[5]": {"target": "T4, hY4R (Homo sapiens, UniProt P50391)", "test": "Y4R Ca2+ aequorin assay (CHO-hY4R-Gqi5-mtAEQ cells)", "format": "cell-based", "set-up": "expressed in transfected cells; host or cells: CHO (co-expressing Gqi5 and mitochondrially targeted aequorin)", "description": "The assay was performed with live CHO-hY4R-Gqi5-mtAEQ cells as previously described (used buffer: buffer III). Measurements were carried out on a Tecan Infinite Lumi plate reader. Data analysis was performed as reported using GraphPad Prism 5 for the calculation of the area under the curve. […] Efficacies Emax correspond to the upper plateaus of the normalized concentration–response curves."}, "[6]": {"target": "T4, hY4R", "test": "Y4R radioligand competition binding, whole CHO-hY4R-Gqi5-mtAEQ cells, [3H]UR-KK200", "set-up": "expressed in transfected cells; host or cells: CHO (co-expressing Gqi5 and mitochondrially targeted aequorin)", "conditions": "[3H]UR-KK200 c = 1 nM, read-out: pKi ± SEM hY4R (converted)", "description": "as §1, §2"}, "[7]": {"target": "hY4R-Nluc(intraECL2) (human) (UniProt P50391)"}, "[8]": {"target": "Sulfo-Cy5-[K4]hPP (Homo sapiens) (UniProt P01298)", "conditions": "cited from earlier work"}, "[9]": {"target": "5-TAMRA-[K18,Nle17,30]hPP (2) (Homo sapiens) (UniProt P01298)", "conditions": "cited from earlier work"}, "[10]": {"target": "T5, human neuropeptide Y Y4 receptor (wild-type, CHO-hY4R-Gqi5-mtAEQ cells) (human, UniProt P50391 1-375)", "test": "cell-based or functional assay"}, "[11]": {"target": "human neuropeptide Y Y1 receptor (human) (UniProt P25929)", "test": "radioligand binding; competition with [^3H]UR-MK299 ([…]) at intact SK-N-MC cells, 23 ± 2 °C, buffer II (150 mM NaCl)"}, "[12]": {"target": "human neuropeptide Y Y5 receptor (human) (UniProt Q15761)", "test": "radioligand binding; competition with [^3H]propionyl-pNPY (5 nM) at intact HEC-1B-hY5R cells, 23 ± 2 °C, buffer II (150 mM NaCl)"}, "[13]": {"target": "T5, human neuropeptide Y Y4 receptor …", "test": "radioligand binding; competition with [^3H]UR-KK200 (1.0 nM) at intact CHO-hY4R-Gqi5-mtAEQ cells, 23 ± 2 °C, buffer I (sodium-free)", "conditions": "one partner purified"}, "[14]": {"target": "T6, human neuropeptide Y Y2 receptor (human, UniProt P49146 1-381)", "T6 construct": "also called hY2R; source: CHO-hY2R cells (from PerkinElmer), intact cells", "T6 sequence (looked up)": "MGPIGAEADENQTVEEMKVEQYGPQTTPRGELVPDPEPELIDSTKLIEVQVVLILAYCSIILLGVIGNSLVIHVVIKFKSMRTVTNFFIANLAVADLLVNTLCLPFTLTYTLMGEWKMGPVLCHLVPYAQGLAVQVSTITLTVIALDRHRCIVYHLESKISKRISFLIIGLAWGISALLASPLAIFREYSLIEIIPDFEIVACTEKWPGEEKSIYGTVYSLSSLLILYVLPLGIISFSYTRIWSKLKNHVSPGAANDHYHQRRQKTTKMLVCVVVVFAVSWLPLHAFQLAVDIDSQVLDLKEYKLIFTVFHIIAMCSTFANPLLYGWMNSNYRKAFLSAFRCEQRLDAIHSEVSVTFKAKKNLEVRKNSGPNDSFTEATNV", "test": "radioligand binding; competition with [^3H]propionyl-pNPY (0.5 nM) at intact CHO-hY2R cells, 23 ± 2 °C, buffer I (sodium-free)", "conditions": "one partner purified"}}, "data": [{"molecule": "Cc1cc(/C=C/C=C/c2ccc(N(C)C)cc2)cc(C)[n+]1CCCn1cc(CCCCNC(=O)N=C(N)NCCC[C@@H]2NC(=O)CCC(=O)NCCCCNC(=O)N=C(N)NCCC[C@@H](C(=O)N[C@@H](CC(C)C)C(=O)N[C@@H](CCCNC(=N)N)C(=O)N[C@@H](Cc3ccc(O)cc3)C(N)=O)NC(=O)[C@H](Cc3ccc(O)cc3)NC2=O)nn1", "note": "[Compound 19]", "values": [{"measurement": "Ki", "setting": "[1]", "result": "> 1000", "unit": "nM"}, {"measurement": "Emax", "setting": "[2]", "result": "43 ± 1", "unit": "%"}, {"measurement": "Ki", "setting": "[3]", "result": "> 1000", "unit": "nM"}, {"measurement": "Ki", "setting": "[4]", "result": "> 1000", "unit": "nM"}, {"measurement": "EC50", "setting": "[5]; CHO-hY4R-Gqi5-mtAEQ cells, agonist mode, read-out: Ca2+-aequorin pEC50 ± SEM (converted)", "result": 56.2, "unit": "nM"}, {"measurement": "Emax", "setting": "[5]; read-out: Ca2+-aequorin Emax ± SEM", "result": "64 ± 2", "unit": "%"}, {"measurement": "Ki", "setting": "[6]", "result": 0.603, "unit": "nM"}]}, {"molecule": "human pancreatic polypeptide (from UniProt P01298 30-65)", "values": [{"measurement": "pKi", "setting": "[7]", "result": 7.7}]}, {"molecule": "Y4 receptor (from UniProt P50391)", "values": [{"measurement": "Kd", "setting": "[8]", "result": 5.6, "unit": "nM"}, {"measurement": "Kd", "setting": "[9]", "result": 26, "unit": "nM"}]}, {"molecule": "B1", "values": [{"measurement": "EC50, miniGsi recruitment assay (HEK293T-NlucN-mGsi/Y4R-NlucC cells)", "setting": "[10]", "result": 73, "unit": "nM"}, {"measurement": "pKi", "setting": "[11]", "result": "< 5"}, {"measurement": "pKi", "setting": "[12]", "result": "< 5.5"}, {"measurement": "Ki", "setting": "[13]", "result": 0.42, "unit": "nM"}, {"measurement": "pKi", "setting": "[14]", "result": "< 5"}]}]}
